Measured values as given in IntAct's records for PubMed 8670882.

How the values were obtained:
[1] = target: T1, arfp2_human ARFIP2 (UniProt P53365)
T1 sequence: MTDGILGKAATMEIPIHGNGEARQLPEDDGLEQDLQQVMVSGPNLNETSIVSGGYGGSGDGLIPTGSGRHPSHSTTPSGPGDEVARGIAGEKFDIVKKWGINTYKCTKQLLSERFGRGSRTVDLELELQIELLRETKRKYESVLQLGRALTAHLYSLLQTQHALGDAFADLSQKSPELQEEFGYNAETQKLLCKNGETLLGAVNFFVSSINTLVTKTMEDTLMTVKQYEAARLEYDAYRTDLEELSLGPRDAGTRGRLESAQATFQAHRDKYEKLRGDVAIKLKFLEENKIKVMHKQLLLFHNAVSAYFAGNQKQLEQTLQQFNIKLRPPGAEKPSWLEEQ

[2] = target: T2, ste20_yeast STE20 (UniProt Q03497)
T2 sequence: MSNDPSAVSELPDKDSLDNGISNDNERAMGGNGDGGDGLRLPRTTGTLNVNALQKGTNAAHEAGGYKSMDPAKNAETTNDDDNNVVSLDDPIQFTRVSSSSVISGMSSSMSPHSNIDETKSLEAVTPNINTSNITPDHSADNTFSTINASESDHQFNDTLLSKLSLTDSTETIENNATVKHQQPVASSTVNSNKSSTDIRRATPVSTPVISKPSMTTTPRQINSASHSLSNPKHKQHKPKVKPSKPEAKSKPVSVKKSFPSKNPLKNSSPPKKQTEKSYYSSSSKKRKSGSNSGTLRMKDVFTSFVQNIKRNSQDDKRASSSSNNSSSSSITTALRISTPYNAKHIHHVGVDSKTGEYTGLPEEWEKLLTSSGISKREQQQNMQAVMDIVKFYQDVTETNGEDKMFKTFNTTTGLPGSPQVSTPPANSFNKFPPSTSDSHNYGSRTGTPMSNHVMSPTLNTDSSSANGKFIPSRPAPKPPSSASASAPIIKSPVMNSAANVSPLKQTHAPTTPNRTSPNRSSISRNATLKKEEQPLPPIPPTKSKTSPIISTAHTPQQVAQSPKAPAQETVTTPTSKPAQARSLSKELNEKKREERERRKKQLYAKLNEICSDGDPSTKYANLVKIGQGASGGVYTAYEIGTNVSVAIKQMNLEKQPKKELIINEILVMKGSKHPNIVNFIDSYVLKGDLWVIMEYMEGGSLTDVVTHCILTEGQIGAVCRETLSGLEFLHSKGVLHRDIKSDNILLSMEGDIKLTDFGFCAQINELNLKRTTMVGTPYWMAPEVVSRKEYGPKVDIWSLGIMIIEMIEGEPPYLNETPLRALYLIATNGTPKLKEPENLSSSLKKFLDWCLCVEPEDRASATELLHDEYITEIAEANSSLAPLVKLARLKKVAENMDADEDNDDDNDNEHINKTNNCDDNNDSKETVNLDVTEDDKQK

Ras-related C3 botulinum toxin substrate 1 (Homo sapiens) (from UniProt P63000) T35A
effect of a mutation on the interaction [1]: decreasing interaction

Ras-related C3 botulinum toxin substrate 1 (Homo sapiens) (from UniProt P63000) G12V
effect of a mutation on the interaction [2]: increasing interaction
